Values belong to the molecule of their own block, whether it stands above or below them.
How the values were obtained:
human gp39 (human) [1] = biological target: human gp39 (human) (UniProt P29965)
human gp39 (human) [2] = biological target: human gp39 (human) (UniProt P29965); remark: listed apart in the source
human gp39 (human) [3] = biological target: human gp39 (human) (UniProt P29965); remark: listed apart in the source
[4] = biological target: gp39-CD8 fusion protein mutant E129/A (murine; human); assay: ELISA on captured mutant gp39-CD8
[5] = biological target: gp39-CD8 fusion protein mutant F201/A-E202/A (murine; human); assay: ELISA on captured mutant gp39-CD8
[6] = biological target: gp39-CD8 fusion protein mutant K143/A (murine; human); assay: ELISA on captured mutant gp39-CD8
[7] = biological target: gp39-CD8 fusion protein mutant N180/A (murine; human); assay: ELISA on captured mutant gp39-CD8
[8] = biological target: gp39-CD8 fusion protein mutant S131/A-T135/A (murine; human); assay: ELISA on captured mutant gp39-CD8
[9] = biological target: gp39-CD8 fusion protein mutant Y145/A (murine; human); assay: ELISA on captured mutant gp39-CD8
human gp39 (human) [10] = biological target: human gp39 (human) (UniProt P29965); assay: Scatchard transformation, BMS-10 Jurkat cells
human gp39 (human) [11] = biological target: human gp39 (human) (UniProt P29965); assay: saturation binding of iodinated protein to gp39+ BMS-10 Jurkat cells
human gp39 (human) [12] = biological target: human gp39 (human) (UniProt P29965); assay: saturation binding of radiolabeled protein to Jurkat cells constitutively expressing gp39

Chain of human gp39 (human) (P29965 whole entry, the tested form may be a part): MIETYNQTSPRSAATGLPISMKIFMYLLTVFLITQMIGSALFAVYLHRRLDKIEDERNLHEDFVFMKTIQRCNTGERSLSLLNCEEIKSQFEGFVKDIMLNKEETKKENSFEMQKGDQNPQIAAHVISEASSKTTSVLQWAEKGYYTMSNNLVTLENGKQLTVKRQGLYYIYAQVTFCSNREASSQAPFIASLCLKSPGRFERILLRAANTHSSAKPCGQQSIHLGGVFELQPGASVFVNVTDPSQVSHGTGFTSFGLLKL
Chain of gp39-CD8 fusion protein mutant Y145/A (murine; human) (P01731 other isoform, or with tags, fused parts or gaps mutant): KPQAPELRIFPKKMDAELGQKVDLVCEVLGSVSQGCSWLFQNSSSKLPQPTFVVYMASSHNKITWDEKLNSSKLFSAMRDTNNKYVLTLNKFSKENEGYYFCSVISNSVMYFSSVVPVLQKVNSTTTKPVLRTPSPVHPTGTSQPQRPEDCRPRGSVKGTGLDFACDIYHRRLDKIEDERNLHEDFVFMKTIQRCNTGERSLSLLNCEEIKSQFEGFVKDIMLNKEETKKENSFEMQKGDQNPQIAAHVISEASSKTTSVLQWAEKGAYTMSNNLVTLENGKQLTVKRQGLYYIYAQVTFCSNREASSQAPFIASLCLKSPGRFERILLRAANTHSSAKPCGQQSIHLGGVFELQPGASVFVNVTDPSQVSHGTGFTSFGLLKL
Chain of gp39-CD8 fusion protein mutant N180/A (murine; human) (P01731 other isoform, or with tags, fused parts or gaps mutant): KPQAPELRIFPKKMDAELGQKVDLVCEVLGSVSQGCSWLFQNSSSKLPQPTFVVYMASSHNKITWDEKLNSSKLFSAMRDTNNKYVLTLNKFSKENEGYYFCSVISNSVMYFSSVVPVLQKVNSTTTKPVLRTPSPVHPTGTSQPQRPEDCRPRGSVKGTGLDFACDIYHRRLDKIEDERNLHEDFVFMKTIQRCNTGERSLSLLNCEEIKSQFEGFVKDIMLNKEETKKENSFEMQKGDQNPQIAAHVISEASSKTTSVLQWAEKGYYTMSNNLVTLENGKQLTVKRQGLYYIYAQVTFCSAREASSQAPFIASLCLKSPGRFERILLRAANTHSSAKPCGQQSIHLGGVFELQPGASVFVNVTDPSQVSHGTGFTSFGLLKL
Chain of gp39-CD8 fusion protein mutant E129/A (murine; human) (P01731 other isoform, or with tags, fused parts or gaps mutant): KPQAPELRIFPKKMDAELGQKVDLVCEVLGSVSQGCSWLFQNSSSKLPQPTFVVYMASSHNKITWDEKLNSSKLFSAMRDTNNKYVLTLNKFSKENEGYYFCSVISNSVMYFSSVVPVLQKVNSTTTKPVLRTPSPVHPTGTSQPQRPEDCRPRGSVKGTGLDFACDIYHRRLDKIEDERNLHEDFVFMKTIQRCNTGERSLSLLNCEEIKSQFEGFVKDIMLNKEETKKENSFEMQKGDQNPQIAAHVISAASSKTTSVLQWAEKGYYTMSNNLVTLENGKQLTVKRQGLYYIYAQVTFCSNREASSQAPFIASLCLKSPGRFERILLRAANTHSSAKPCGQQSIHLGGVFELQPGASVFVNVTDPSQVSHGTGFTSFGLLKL
Chain of gp39-CD8 fusion protein mutant S131/A-T135/A (murine; human) (P01731 other isoform, or with tags, fused parts or gaps mutant): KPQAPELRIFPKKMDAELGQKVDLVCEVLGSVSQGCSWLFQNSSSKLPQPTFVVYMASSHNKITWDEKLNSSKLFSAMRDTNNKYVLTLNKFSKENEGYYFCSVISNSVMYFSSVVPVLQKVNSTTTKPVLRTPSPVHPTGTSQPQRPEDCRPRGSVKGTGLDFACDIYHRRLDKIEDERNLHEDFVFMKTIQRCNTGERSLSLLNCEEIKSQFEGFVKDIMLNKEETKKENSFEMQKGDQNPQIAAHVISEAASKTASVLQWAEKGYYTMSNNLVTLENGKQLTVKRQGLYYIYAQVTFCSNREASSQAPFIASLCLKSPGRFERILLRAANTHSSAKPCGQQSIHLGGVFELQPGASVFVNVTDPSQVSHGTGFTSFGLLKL

IgM produced, % of medium control (IgG in the next line) (% of medium control) (human gp39 (human) [1]): 87.9 | [3H]thymidine incorporation of B cells, % of medium control (% of medium control) (human gp39 (human) [1]): 87.9
Molecule: negative control monoclonal antibody

IgM produced, % of medium control (IgG in the next line) (% of medium control) (human gp39 (human) [1]): 13.9 | [3H]thymidine incorporation of B cells, % of medium control (% of medium control) (human gp39 (human) [1]): 3.3 | IgG synthesis by B cells at 20 µg/ml purified mAb, % of medium control (% of medium control) (human gp39 (human) [2]): 17 | IgG synthesis at 7.53 x 10^12 binding sites/ml, % of medium only control (% of medium only control) (human gp39 (human) [3]): 12 | binding relative to wild-type gp39 [4]: 70% | binding relative to wild-type gp39 [5]: 112% | binding relative to wild-type gp39 [6]: 5% | binding relative to wild-type gp39 [7]: 93% | binding relative to wild-type gp39 [8]: 89% | binding relative to wild-type gp39 [9]: 106%
B1: monoclonal antibody 39-1.7 (antibody, V domains shown)
VH: EVQLQQSGPELVKPGASVKMSCKASGYTFTDYYMKWVKQSHGKSLEWIGNINPNNGDTFFNQKFEGKATLTVDKSSSAAYMQLNSLTSEDSAVKKCARGPGTNYFDYWGQGTTLTVSS
VL: DIVLTQSPVSLAVSLGQRVTISCRASQSVSSSTNSYMHWYQQKPGQPPKLLIKYASNLESGVPARFSGSGSGTDFTLNIHPVEEEDTATYYCQHSWEIPFTFGSGTKLEIRR

IgM produced, % of medium control (IgG in the next line) (% of medium control) (human gp39 (human) [1]): 17.9 | [3H]thymidine incorporation of B cells, % of medium control (% of medium control) (human gp39 (human) [1]): 2.9 | IgG synthesis by B cells at 20 µg/ml purified mAb, % of medium control (% of medium control) (human gp39 (human) [2]): 8 | IgG synthesis at 7.53 x 10^12 binding sites/ml, % of medium only control (% of medium only control) (human gp39 (human) [3]): 11 | binding relative to wild-type gp39 [4]: 130% | binding relative to wild-type gp39 [5]: 9% | binding relative to wild-type gp39 [6]: 52% | binding relative to wild-type gp39 [7]: 144% | binding relative to wild-type gp39 [8]: 113% | binding relative to wild-type gp39 [9]: 124% | sites per cell (sites per cell) (human gp39 (human) [10]): 10000 | Kd (human gp39 (human) [11]): 0.4 nM | fold greater affinity than 106 sFv-Ig (human gp39 (human) [12]): 3 fold
B2: monoclonal antibody 39-1.106 (antibody, V domains shown)
VH: EVKLVESGGGLVKPGGSLKLSCTTSGFTFNNYAMSWVRQTPEKRLEWVASISSGDSTYYPDSVRGRFTISRDNARNILYLQMSSLRSEDTAMYYCARHYDYDSYAMDYWGQGTSVTVSS
VL: DIQMTQSPASLSASVGETVTITCRASETIYSYLAWYQQKQGRSPQLLVYNAKTLAEGVPSRFSGSGSGTQFSLKINSLQPEDFGSYYCQHHYNTPLTFGTGTKLELKR
